The values that follow come from PMC11236980, “PARG is essential for Polθ-mediated DNA end-joining by removing repressive poly-ADP-ribose marks”.

One data set deals with PARP1 (UniProt P09874 1-1014). The data set can be described thus: EMSA; 25 nM PARP1; 25 mM Tris-HCl pH 7.5, 5 mM MgCl2, 30 mM NaCl, 5% glycerol, 0.1 mg/mL BSA, 1 mM DTT; PARylation 20 min 37 °C, binding at room temperature; 8% native PAGE 0.5x TBE. The settings on record: protein: recombinant; tags: N-terminal His; label: 5'-Cy3; single strand. Background: A gel shift assay detects complexes by their altered migration in electrophoresis.

The next data set concerns the target Polθ-hel (human, UniProt O75417 1-894). The data set can be described thus: EMSA; PARP1 or NAD+ omitted; 40 nM protein, 10 nM DNA; 25 mM Tris-HCl pH 7.5, 5 mM MgCl2, 30 mM NaCl, 5% glycerol, 0.1 mg/mL BSA, 1 mM DTT; PARylation 20 min 37 °C, binding at room temperature; 8% native PAGE 0.5x TBE. The settings on record: protein: recombinant; label: 5'-Cy3; single strand.

Chain of Polθ-hel (O75417 1-894): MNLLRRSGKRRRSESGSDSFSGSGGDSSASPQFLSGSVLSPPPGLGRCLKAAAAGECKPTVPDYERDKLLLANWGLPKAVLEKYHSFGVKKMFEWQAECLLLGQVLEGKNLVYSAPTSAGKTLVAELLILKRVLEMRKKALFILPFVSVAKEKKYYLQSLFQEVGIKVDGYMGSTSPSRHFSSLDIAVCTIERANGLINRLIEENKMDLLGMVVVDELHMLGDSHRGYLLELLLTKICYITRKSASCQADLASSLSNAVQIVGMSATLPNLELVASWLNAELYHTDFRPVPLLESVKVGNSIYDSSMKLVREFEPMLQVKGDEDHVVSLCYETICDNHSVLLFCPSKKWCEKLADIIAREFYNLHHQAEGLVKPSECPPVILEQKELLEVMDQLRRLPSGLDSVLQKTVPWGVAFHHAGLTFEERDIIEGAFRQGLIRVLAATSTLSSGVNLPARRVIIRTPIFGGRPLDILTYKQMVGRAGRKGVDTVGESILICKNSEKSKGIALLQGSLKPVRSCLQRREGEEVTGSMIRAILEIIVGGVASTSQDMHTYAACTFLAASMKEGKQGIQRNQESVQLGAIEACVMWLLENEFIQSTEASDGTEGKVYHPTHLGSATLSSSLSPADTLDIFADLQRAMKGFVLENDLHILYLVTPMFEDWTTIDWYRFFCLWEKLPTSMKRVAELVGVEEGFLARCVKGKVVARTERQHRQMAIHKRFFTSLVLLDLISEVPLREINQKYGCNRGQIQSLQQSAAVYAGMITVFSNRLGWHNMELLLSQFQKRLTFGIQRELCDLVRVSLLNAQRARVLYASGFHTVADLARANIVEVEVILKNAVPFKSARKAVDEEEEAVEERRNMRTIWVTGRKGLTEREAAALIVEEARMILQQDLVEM
Chain of PARP1 (P09874 whole entry): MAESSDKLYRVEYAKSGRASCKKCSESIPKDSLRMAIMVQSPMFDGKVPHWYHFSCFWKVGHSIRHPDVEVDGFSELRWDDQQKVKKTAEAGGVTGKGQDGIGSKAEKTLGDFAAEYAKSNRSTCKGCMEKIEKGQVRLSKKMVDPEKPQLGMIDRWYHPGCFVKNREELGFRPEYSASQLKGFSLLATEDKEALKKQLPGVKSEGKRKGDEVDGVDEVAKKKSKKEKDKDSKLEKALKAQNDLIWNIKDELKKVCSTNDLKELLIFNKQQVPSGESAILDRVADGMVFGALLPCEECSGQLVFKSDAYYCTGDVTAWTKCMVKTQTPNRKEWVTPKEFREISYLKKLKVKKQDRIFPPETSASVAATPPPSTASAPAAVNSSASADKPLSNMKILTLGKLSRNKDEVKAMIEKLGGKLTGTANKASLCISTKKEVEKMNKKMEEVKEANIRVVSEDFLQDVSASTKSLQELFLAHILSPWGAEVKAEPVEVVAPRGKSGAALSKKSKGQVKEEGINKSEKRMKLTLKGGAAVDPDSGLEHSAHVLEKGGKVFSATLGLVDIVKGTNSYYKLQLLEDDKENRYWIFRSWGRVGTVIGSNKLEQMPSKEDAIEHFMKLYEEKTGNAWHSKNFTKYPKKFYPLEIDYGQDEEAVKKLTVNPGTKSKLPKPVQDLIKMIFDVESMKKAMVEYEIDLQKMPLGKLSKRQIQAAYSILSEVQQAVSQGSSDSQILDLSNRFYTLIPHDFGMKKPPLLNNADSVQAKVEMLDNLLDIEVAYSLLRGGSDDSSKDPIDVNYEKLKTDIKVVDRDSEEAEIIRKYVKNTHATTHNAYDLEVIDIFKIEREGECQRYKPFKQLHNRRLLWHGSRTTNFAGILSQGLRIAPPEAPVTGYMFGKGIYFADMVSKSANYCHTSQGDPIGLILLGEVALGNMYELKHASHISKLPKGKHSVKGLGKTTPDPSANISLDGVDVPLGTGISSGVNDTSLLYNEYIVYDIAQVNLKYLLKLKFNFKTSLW

Take TTTTTTTTTTTTTTTTTTTTTTTTTTTTT (ssDNA) [RP316-Cy3]: the binding result with PARP1 is on record as “no binding”; in the data set with Polθ-hel, “binds”.
